Results taken from US20190241648A1 (STATEN BIOTECHNOLOGY B V, published 2019).
Ends that are not written are not given here.

How the values were obtained:
Assay in all cases: peptide microarray
ApoC3 peptide … D66A = target: T1, ApoC3 peptide … D66A (human, not fully specified (bridges); also: cyclic constrained)
T1 peptide: DKFSEFWALDPEV
Description: (§1) F64 was completely variable.
(§2) Pre: staining of one of the ApoC3 peptide microarrays was done with the secondary antibody goat anti-human IgG (Fe) DyLight680 (1:5000) and control antibody mouse monoclonal anti-HA (12CA5) DyLight800 (1:2000) to investigate background interactions of the secondary antibody with the antigen-derived peptides that could interfere with the main assays. Subsequent incubation of other ApoC3 peptide microarrays with antibody samples was followed by staining with secondary and control antibodies as well as read-out at scanning intensities of 7/7 (red/green). The additional HA peptides framing the peptide arrays were stained as internal quality control to confirm the assay quality and the peptide microarray integrity.

ApoC3 peptide … P69A = target: T2, ApoC3 peptide … P69A (human, not fully specified (bridges); also: cyclic constrained)
T2 peptide: DKFSEFWDLDAEV
Description: as §1, §2

ApoC3 peptide … K60C = target: T3, ApoC3 peptide … K60C (human, not fully specified (bridges); also: cyclic constrained)
T3 peptide: DCFSEFWDLDPEV
Description: as §1, §2

ApoC3 peptide … F64D = target: T4, ApoC3 peptide … F64D (human, not fully specified (bridges); also: cyclic constrained)
T4 peptide: DKFSEDWDLDPEV
Description: as §1, §2

ApoC3 peptide … P69D = target: T5, ApoC3 peptide … P69D (human, not fully specified (bridges); also: cyclic constrained)
T5 peptide: DKFSEFWDLDDEV
Description: as §1, §2

ApoC3 peptide … S62E = ApoC3 peptide … S62E (human, cyclic constrained)
Description: as §1, §2

ApoC3 peptide … F64E = target: T6, ApoC3 peptide … F64E (human, not fully specified (bridges); also: cyclic constrained)
T6 peptide: DKFSEEWDLDPEV
Description: as §1, §2

ApoC3 peptide … W65E = ApoC3 peptide … W65E (human, cyclic constrained)
Description: as §1, §2

ApoC3 peptide … D66E = target: T7, ApoC3 peptide … D66E (human, not fully specified (bridges); also: cyclic constrained)
T7 peptide: DKFSEFWELDPEV
Description: as §1, §2

ApoC3 peptide … L67G = target: T8, ApoC3 peptide … L67G (human, not fully specified (bridges); also: cyclic constrained)
T8 peptide: DKFSEFWDGDPEV
Description: as §1, §2

ApoC3 peptide … W65I = target: T9, ApoC3 peptide … W65I (human, not fully specified (bridges); also: cyclic constrained, ring type and places not given here)
T9 peptide: DKFSEFIDLDPEV
Description: as §1, §2

ApoC3 peptide … E70I = target: T10, ApoC3 peptide … E70I (human, not fully specified (bridges); also: cyclic constrained)
T10 peptide: DKFSEFWDLDPIV
Description: as §1, §2

ApoC3 peptide … S62K = ApoC3 peptide … S62K (human, cyclic constrained)
Description: as §1, §2

ApoC3 peptide … E63K = ApoC3 peptide … E63K (human, cyclic constrained)
Description: as §1, §2

ApoC3 peptide … V71K = ApoC3 peptide … V71K (human, cyclic constrained)
Description: as §1, §2

ApoC3 peptide … D59L = target: T11, ApoC3 peptide … D59L (human, cyclic constrained)
T11 peptide: LKFSEFWDLDPEV
Description: as §1, §2

ApoC3 peptide … S62L = ApoC3 peptide … S62L (human, cyclic constrained)
Description: as §1, §2

ApoC3 peptide … E70L = target: T12, ApoC3 peptide … E70L (human, not fully specified (bridges); also: cyclic constrained)
T12 peptide: DKFSEFWDLDPLV
Description: as §1, §2

ApoC3 peptide … F61M = target: T13, ApoC3 peptide … F61M (human, not fully specified (bridges); also: cyclic constrained)
T13 peptide: DKMSEFWDLDPEV
Description: as §1, §2

ApoC3 peptide … P69M = target: T14, ApoC3 peptide … P69M (human, not fully specified (bridges); also: cyclic constrained)
T14 peptide: DKFSEFWDLDMEV
Description: as §1, §2

ApoC3 peptide … E63N = ApoC3 peptide … E63N (human, cyclic constrained)
Description: as §1, §2

ApoC3 peptide … D59P = target: T15, ApoC3 peptide … D59P (human, cyclic constrained)
T15 peptide: PKFSEFWDLDPEV
Description: as §1, §2

ApoC3 peptide … F61Q = target: T16, ApoC3 peptide … F61Q (human, not fully specified (bridges); also: cyclic constrained)
T16 peptide: DKQSEFWDLDPEV
Description: as §1, §2

ApoC3 peptide … W65Q = target: T17, ApoC3 peptide … W65Q (human, not fully specified (bridges); also: cyclic constrained, ring type and places not given here)
T17 peptide: DKFSEFQDLDPEV
Description: as §1, §2

ApoC3 peptide … D66Q = target: T18, ApoC3 peptide … D66Q (human, not fully specified (bridges); also: cyclic constrained)
T18 peptide: DKFSEFWQLDPEV
Description: as §1, §2

ApoC3 peptide … D66R = target: T19, ApoC3 peptide … D66R (human, not fully specified (bridges); also: cyclic constrained)
T19 peptide: DKFSEFWRLDPEV
Description: as §1, §2

ApoC3 peptide … E70R = target: T20, ApoC3 peptide … E70R (human, not fully specified (bridges); also: cyclic constrained)
T20 peptide: DKFSEFWDLDPRV
Description: as §1, §2

ApoC3 peptide … V71R = ApoC3 peptide … V71R (human, cyclic constrained)
Description: as §1, §2

ApoC3 peptide … E70S = target: T21, ApoC3 peptide … E70S (human, cyclic constrained)
T21 peptide: DKFSEFWDLDPSV
Description: as §1, §2

ApoC3 peptide … D59T = target: T22, ApoC3 peptide … D59T (human, cyclic constrained)
T22 peptide: TKFSEFWDLDPEV
Description: as §1, §2

ApoC3 peptide … F61T = target: T23, ApoC3 peptide … F61T (human, not fully specified (bridges); also: cyclic constrained)
T23 peptide: DKTSEFWDLDPEV
Description: as §1, §2

ApoC3 peptide … D59V = target: T24, ApoC3 peptide … D59V (human, not fully specified (bridges); also: cyclic constrained)
T24 peptide: VKFSEFWDLDPEV
Description: as §1, §2

ApoC3 peptide … E63V = ApoC3 peptide … E63V (human, cyclic constrained)
Description: as §1, §2

ApoC3 peptide … F64W = target: T25, ApoC3 peptide … F64W (human, not fully specified (bridges); also: cyclic constrained)
T25 peptide: DKFSEWWDLDPEV
Description: as §1, §2

ApoC3 peptide … D68W = ApoC3 peptide … D68W (human, cyclic constrained)
Description: as §1, §2

ApoC3 peptide … K60Y = target: T26, ApoC3 peptide … K60Y (human, not fully specified (bridges); also: cyclic constrained)
T26 peptide: DYFSEFWDLDPEV
Description: as §1, §2

B1: anti-ApoC3 antibody 6A6 (antibody, V domains shown)
VH: EVQLVESGGGLVQPGGSLRLSCAASGFTFSSYAGRWVRQVPGKGLEWVSSINAGGGSTSYADSVKGRFTISRDNAKNTLYLQMNSLKPEDTAKYYCTQNSYRYWGQGTRVAVSS
VL: DVVLTQTPGSLSVVPGESASISCKASQSLIHTDGKTYLYWLLQKPGQRPQLLIYQVSSHESGVPDRFTGSGSGTDFTLKISGVKAEDAGVYYCAQATYNPRTFGQGTKLEIK
notes: it was detected with goat anti-human IgG (Fc); also called mAb 6A6; llama antibody 6A6
% of binding to wild-type peptide (ApoC3 peptide … D66A): 0% | % of binding to wild-type peptide (ApoC3 peptide … P69A): 57.4% | % of binding to wild-type peptide (ApoC3 peptide … K60C): 84% | % of binding to wild-type peptide (ApoC3 peptide … F64D): 220% | % of binding to wild-type peptide (ApoC3 peptide … P69D): 98.5% | % of binding to wild-type peptide (ApoC3 peptide … S62E): 70.7% | % of binding to wild-type peptide (ApoC3 peptide … F64E): 236% | % of binding to wild-type peptide (ApoC3 peptide … W65E): 168% | % of binding to wild-type peptide (ApoC3 peptide … D66E): 18.9% | % of binding to wild-type peptide (ApoC3 peptide … L67G): 0.6% | % of binding to wild-type peptide (ApoC3 peptide … W65I): 20.3% | % of binding to wild-type peptide (ApoC3 peptide … E70I): 1.59% | % of binding to wild-type peptide (ApoC3 peptide … S62K): 11.1% | % of binding to wild-type peptide (ApoC3 peptide … E63K): 7.9% | % of binding to wild-type peptide (ApoC3 peptide … V71K): 58.7% | % of binding to wild-type peptide (ApoC3 peptide … D59L): 68.6% | % of binding to wild-type peptide (ApoC3 peptide … S62L): 81% | % of binding to wild-type peptide (ApoC3 peptide … E70L): 1.22% | % of binding to wild-type peptide (ApoC3 peptide … F61M): 56.5% | % of binding to wild-type peptide (ApoC3 peptide … P69M): 44.1% | % of binding to wild-type peptide (ApoC3 peptide … E63N): 38.8% | % of binding to wild-type peptide (ApoC3 peptide … D59P): 107% | % of binding to wild-type peptide (ApoC3 peptide … F61Q): 64.5% | % of binding to wild-type peptide (ApoC3 peptide … W65Q): 38.3% | % of binding to wild-type peptide (ApoC3 peptide … D66Q): 0% | % of binding to wild-type peptide (ApoC3 peptide … D66R): 0% | % of binding to wild-type peptide (ApoC3 peptide … E70R): 0% | % of binding to wild-type peptide (ApoC3 peptide … V71R): 47.5% | % of binding to wild-type peptide (ApoC3 peptide … E70S): 1.05% | % of binding to wild-type peptide (ApoC3 peptide … D59T): 101% | % of binding to wild-type peptide (ApoC3 peptide … F61T): 56.3% | % of binding to wild-type peptide (ApoC3 peptide … D59V): 65.1% | % of binding to wild-type peptide (ApoC3 peptide … E63V): 13% | % of binding to wild-type peptide (ApoC3 peptide … F64W): 69.5% | % of binding to wild-type peptide (ApoC3 peptide … D68W): 0% | % of binding to wild-type peptide (ApoC3 peptide … K60Y): 83.9%
